According to US20070020283A1:

The binders below were run against human interferon γ (human) (UniProt P01579) (assay: cell-based or functional assay).
Sequence of human interferon γ (human) (P01579 24-166 limits assumed): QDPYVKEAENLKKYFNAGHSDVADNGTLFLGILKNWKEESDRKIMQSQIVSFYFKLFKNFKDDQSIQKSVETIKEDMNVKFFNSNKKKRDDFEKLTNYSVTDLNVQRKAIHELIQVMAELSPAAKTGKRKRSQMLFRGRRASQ

| IC50 (M), GAS-luciferase bioassay in HEK293 cells [M] | IC50 (M), ISRE-luciferase bioassay in HEK293 cells [M] | Binder |
| --- | --- | --- |
| 2.1e-08 | 1.2e-08 | hIFNγRα(24-239).SG.hFc (Fc fusion, not shown: a dimerising Fc or GST) LGPSSVPTPTNVTIESYNMNPIVYWEYQIMPQVPVFTVEVKNYGVKNSEWIDACINISHHYCNISDHVGDPSNSLWVRVKARVGQKESAYAKSEEFAVCRDGKIGPPKLDIRKEEKQIMIDIFHPSVFVNGDEQEVDYDPETTCYIRVYNVYVRMNGSEIQYKILTQKEDDCDEIQCQLAIPVSSLNSQYCVSAEGVLHVWGVTTEKSKEVCITIFSG |
| 1.1e-08 | 6e-09 | hIFNγRα(24-239).TG.hFc.ARA.hIFNγRβ (Fc fusion, not shown: a dimerising Fc or GST) chain (part 1 of 2): LGPSSVPTPTNVTIESYNMNPIVYWEYQIMPQVPVFTVEVKNYGVKNSEWIDACINISHHYCNISDHVGDPSNSLWVRVKARVGQKESAYAKSEEFAVCRDGKIGPPKLDIRKEEKQIMIDIFHPSVFVNGDEQEVDYDPETTCYIRVYNVYVRMNGSEIQYKILTQKEDDCDEIQCQLAIPVSSLNSQYCVSAEGVLHVWGVTTEKSKEVCITIFTG chain (part 2 of 2): ARASQLPAPQHPKIRLYNAEQVLSWEPVALSNSTRPVVYQVQFKYTDSKWFTADIMSIGVNCTQITATECDFTAASPSAGFPMDFNVTLRLRAELGALHSAWVTMPWFQHYRNVTVGPPENIEVTPGEGSLIIRFSSPFDIADTSTAFFCYYVHYWEKGGIQQVKGPFRSNSISLDNLKPSRVYCLQVQAQLLWNKSNIFRVGHLSNISCYETMADASTELQ |
| 1.3e-08 | 2.4e-07 | hIFNγRα(33-239).TG.hIFNγRβ.SG.hFc (Fc fusion, not shown: a dimerising Fc or GST) TNVTIESYNMNPIVYWEYQIMPQVPVFTVEVKNYGVKNSEWIDACINISHHYCNISDHVGDPSNSLWVRVKARVGQKESAYAKSEEFAVCRDGKIGPPKLDIRKEEKQIMIDIFHPSVFVNGDEQEVDYDPETTCYIRVYNVYVRMNGSEIQYKILTQKEDDCDEIQCQLAIPVSSLNSQYCVSAEGVLHVWGVTTEKSKEVCITIFTGSQLPAPQHPKIRLYNAEQVLSWEPVALSNSTRPVVYQVQFKYTDSKWFTADIMSIGVNCTQITATECDFTAASPSAGFPMDFNVTLRLRAELGALHSAWVTMPWFQHYRNVTVGPPENIEVTPGEGSLIIRFSSPFDIADTSTAFFCYYVHYWEKGGIQQVKGPFRSNSISLDNLKPSRVYCLQVQAQLLWNKSNIFRVGHLSNISCYETMADASTELQSG |
| 3.2e-09 | 1.3e-09 | hIFNγRα(24-239).TG.hIFNγRβ.SG.hFc (Fc fusion, not shown: a dimerising Fc or GST) LGPSSVPTPTNVTIESYNMNPIVYWEYQIMPQVPVFTVEVKNYGVKNSEWIDACINISHHYCNISDHVGDPSNSLWVRVKARVGQKESAYAKSEEFAVCRDGKIGPPKLDIRKEEKQIMIDIFHPSVFVNGDEQEVDYDPETTCYIRVYNVYVRMNGSEIQYKILTQKEDDCDEIQCQLAIPVSSLNSQYCVSAEGVLHVWGVTTEKSKEVCITIFTGSQLPAPQHPKIRLYNAEQVLSWEPVALSNSTRPVVYQVQFKYTDSKWFTADIMSIGVNCTQITATECDFTAASPSAGFPMDFNVTLRLRAELGALHSAWVTMPWFQHYRNVTVGPPENIEVTPGEGSLIIRFSSPFDIADTSTAFFCYYVHYWEKGGIQQVKGPFRSNSISLDNLKPSRVYCLQVQAQLLWNKSNIFRVGHLSNISCYETMADASTELQSG |
| 4.6e-09 | 2.57e-09 | hIFNγRα(23-239).SG.hFc (Fc fusion, not shown: a dimerising Fc or GST) DLGPSSVPTPTNVTIESYNMNPIVYWEYQIMPQVPVFTVEVKNYGVKNSEWIDACINISHHYCNISDHVGDPSNSLWVRVKARVGQKESAYAKSEEFAVCRDGKIGPPKLDIRKEEKQIMIDIFHPSVFVNGDEQEVDYDPETTCYIRVYNVYVRMNGSEIQYKILTQKEDDCDEIQCQLAIPVSSLNSQYCVSAEGVLHVWGVTTEKSKEVCITIFSG |
| 1e-09 | 7.9e-10 | hIFNγRα(23-239).TG.hFc.ARA.hIFNγRβ (Fc fusion, not shown: a dimerising Fc or GST) chain (part 1 of 2): DLGPSSVPTPTNVTIESYNMNPIVYWEYQIMPQVPVFTVEVKNYGVKNSEWIDACINISHHYCNISDHVGDPSNSLWVRVKARVGQKESAYAKSEEFAVCRDGKIGPPKLDIRKEEKQIMIDIFHPSVFVNGDEQEVDYDPETTCYIRVYNVYVRMNGSEIQYKILTQKEDDCDEIQCQLAIPVSSLNSQYCVSAEGVLHVWGVTTEKSKEVCITIFTG chain (part 2 of 2): ARASQLPAPQHPKIRLYNAEQVLSWEPVALSNSTRPVVYQVQFKYTDSKWFTADIMSIGVNCTQITATECDFTAASPSAGFPMDFNVTLRLRAELGALHSAWVTMPWFQHYRNVTVGPPENIEVTPGEGSLIIRFSSPFDIADTSTAFFCYYVHYWEKGGIQQVKGPFRSNSISLDNLKPSRVYCLQVQAQLLWNKSNIFRVGHLSNISCYETMADASTELQ |
| 1.9e-10 | 5.3e-11 | hIFNγRα(23-239).TG.hIFNγRβ.SG.hFc (Fc fusion, not shown: a dimerising Fc or GST) DLGPSSVPTPTNVTIESYNMNPIVYWEYQIMPQVPVFTVEVKNYGVKNSEWIDACINISHHYCNISDHVGDPSNSLWVRVKARVGQKESAYAKSEEFAVCRDGKIGPPKLDIRKEEKQIMIDIFHPSVFVNGDEQEVDYDPETTCYIRVYNVYVRMNGSEIQYKILTQKEDDCDEIQCQLAIPVSSLNSQYCVSAEGVLHVWGVTTEKSKEVCITIFTGSQLPAPQHPKIRLYNAEQVLSWEPVALSNSTRPVVYQVQFKYTDSKWFTADIMSIGVNCTQITATECDFTAASPSAGFPMDFNVTLRLRAELGALHSAWVTMPWFQHYRNVTVGPPENIEVTPGEGSLIIRFSSPFDIADTSTAFFCYYVHYWEKGGIQQVKGPFRSNSISLDNLKPSRVYCLQVQAQLLWNKSNIFRVGHLSNISCYETMADASTELQSG |
